Assays:
Human CXCR7 (human) [1] = biological target: Human CXCR7 (human) (UniProt P25106); assay: competition FACS with 4 nM biotinylated SDF-1 on HEK-hCXCR7 cells
Human CXCR7 (human) [2] = biological target: Human CXCR7 (human) (UniProt P25106); assay: [125I]-CXCL12 displacement on NIH3T3-hCXCR7 cells
Human CXCR7 (human) [3] = biological target: Human CXCR7 (human) (UniProt P25106); assay: cell-based or functional assay
Human CXCR7 (human) [4] = biological target: Human CXCR7 (human) (UniProt P25106); assay: [125I]-CXCL12 displacement on NIH3T3-hCXCR7 cells, relative to cold SDF-1

Sequence of Human CXCR7 (human) (P25106 whole entry): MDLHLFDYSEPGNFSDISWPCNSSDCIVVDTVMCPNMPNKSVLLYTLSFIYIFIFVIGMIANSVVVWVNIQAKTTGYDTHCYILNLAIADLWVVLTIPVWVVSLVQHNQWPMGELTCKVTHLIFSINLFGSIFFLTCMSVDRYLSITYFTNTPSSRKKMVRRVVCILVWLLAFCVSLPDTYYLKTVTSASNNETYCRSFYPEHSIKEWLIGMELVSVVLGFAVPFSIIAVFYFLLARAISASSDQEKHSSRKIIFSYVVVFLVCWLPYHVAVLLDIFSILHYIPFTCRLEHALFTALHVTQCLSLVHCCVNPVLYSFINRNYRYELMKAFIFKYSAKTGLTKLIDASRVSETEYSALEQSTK

competition relative to unlabelled SDF-1 (%) (Human CXCR7 (human) [1]): > 95%
Ki (Human CXCR7 (human) [2]): 5.9 nM
β-arrestin recruitment in absence of HSA [IC50] (Human CXCR7 (human) [3]): 12.9
β-arrestin recruitment in presence of HSA [IC50] (Human CXCR7 (human) [3]): 34.8
Average SDF-1 displacement (%) (Human CXCR7 (human) [4]): 73%
Substance: Mab 8F11 (Biolegend) (antibody)
